Results from patent US20240400670A1 (JIANGSU HENGRUI PHARMACEUTICALS, published 2024).
Substitutions are numbered along the chain they refer to.

T1: human IL-23 (Sino Biological, CT048-H08H) (human, UniProt Q9NPF7 20-189; P29460 23-328)
T1 sequence (looked up) 1: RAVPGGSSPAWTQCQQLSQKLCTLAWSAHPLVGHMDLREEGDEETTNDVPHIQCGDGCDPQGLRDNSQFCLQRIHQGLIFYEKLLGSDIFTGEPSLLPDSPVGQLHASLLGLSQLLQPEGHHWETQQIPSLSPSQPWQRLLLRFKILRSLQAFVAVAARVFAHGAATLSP
T1 sequence (looked up) 2: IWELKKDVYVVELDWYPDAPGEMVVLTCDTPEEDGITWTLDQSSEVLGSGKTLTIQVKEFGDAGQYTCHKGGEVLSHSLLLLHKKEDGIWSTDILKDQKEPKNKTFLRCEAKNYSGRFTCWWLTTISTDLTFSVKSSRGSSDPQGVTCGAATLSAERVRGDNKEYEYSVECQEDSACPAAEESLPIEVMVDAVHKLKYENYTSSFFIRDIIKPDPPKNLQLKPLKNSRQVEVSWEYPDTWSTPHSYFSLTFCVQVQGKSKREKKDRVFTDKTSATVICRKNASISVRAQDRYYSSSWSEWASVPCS

T2: mouse IL-23 (R&D Systems, 1887-ML/CF) (mouse, UniProt Q9EQ14 22-196; P43432 23-335)
T2 construct: also called Mouse IL-23 p19
T2 sequence (looked up) 1: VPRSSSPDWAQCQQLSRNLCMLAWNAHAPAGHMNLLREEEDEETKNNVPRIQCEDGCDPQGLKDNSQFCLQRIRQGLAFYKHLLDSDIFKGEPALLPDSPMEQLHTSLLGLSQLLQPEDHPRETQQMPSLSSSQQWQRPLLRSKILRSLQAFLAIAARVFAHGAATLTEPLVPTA
T2 sequence (looked up) 2: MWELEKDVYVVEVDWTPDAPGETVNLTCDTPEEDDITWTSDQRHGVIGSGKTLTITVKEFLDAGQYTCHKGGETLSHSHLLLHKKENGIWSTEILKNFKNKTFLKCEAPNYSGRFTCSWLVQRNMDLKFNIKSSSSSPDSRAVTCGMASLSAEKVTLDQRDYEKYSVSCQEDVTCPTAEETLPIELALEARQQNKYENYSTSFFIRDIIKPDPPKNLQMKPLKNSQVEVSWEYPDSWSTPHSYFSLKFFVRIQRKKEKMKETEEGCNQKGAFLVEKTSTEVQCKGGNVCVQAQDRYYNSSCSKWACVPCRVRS

T3: IL-23 (R&D Systems, 1290-IL-010) (UniProt Q9NPF7 20-189; P29460 23-328)
T3 sequence (looked up) 1: T1 sequence (looked up) 1
T3 sequence (looked up) 2: T1 sequence (looked up) 2

B1: Ch29 (antibody, human IgG1, kappa, L234A L235A, V domains shown)
VH: QVQLKESGPGLVAPSQSLSITCTVSGFSLTSYAISWVRQPPGKGLEWLGVIWTGGGTNYNSGIKSRLTISKDNSKSQVFLNMNSLQTEDTARYYCVREGDYGSYAGAMDYWGQGTSVTVSS
VL: DIVLTQSPASLAVSLGQRATISCRASESVDYYGISSMHWFQQKPGQPPKLLIYRASNLESGIPARFSGSGSRTDFTLTINRVETDDVATYYCQQANKDPYTFGGGTKLEIKR
notes: chimeric: murine variable regions on hIgG1/hkappa; also called chimeric antibody of mAb29
B2: Ch38 (antibody, human IgG1, kappa, L234A L235A, V domains shown)
VH: EFQLQQSGPELVKPGASVKISCKASGYSFTDHNMNWVKQSNGKSLEWIGVINPNYGTTTYNQKFKGKATLTVDQSSSTAYMQLNILTSEDSAVYYCARRGFAYWGQGTLVTVSA
VL: DIVISQDELSNPVTSGESVSISCRSSKSLLYKDGKTYLNWFLQRPGQSPQLLIYLMSTRASGVSDRFSGSGSGTDLTLEISRVKAEDVGVYYCQQIAEYPFTFGSGTKLEIKR
notes: chimeric: murine variable regions on hIgG1/hkappa; also called chimeric antibody of mAb38
B3: Hu29-19 (antibody, human IgG1, kappa, L234A L235A, V domains shown)
VH: QVTLKESGPVLVKPTETLTLTCTVSGFSLTNYAISWVRQPPGKGLEWLGVIWTGGGTNYNSGIKSRLTISKDNSKSQVVLTMTNMDPVDTARYYCVREGDYGSYAGAMDYWGQGTTVTVSS
VL: DIVLTQSPDSLAVSLGERATINCRASESVDYYGISSMHWFQQKPGQPPKLLIYRASNLESGIPARFSGSGSRTDFTLTISSLQAEDVAVYYCQQANKDPYTFGGGTKVEIKR
notes: humanized mAb29, IgG1/kappa
B4: Hu29-24 (antibody, human IgG1, kappa, L234A L235A)
heavy: not shown
light: DIVLTQSPDSLAVSLGQRATINCRASESVDYYGISSMHWFQQKPGQPPKLLIYRASNLESGIPARFSGSGSRTDFTLTISSLQAEDVAVYYCQQANKDPYTFGGGTKVEIKRTVAAPSVFIFPPSDEQLKSGTASVVCLLNNFYPREAKVQWKVDNALQSGNSQESVTEQDSKDSTYSLSSTLTLSKADYEKHKVYACEVTHQGLSSPVTKSFNRGEC
notes: humanized mAb29, IgG1/kappa
B5: Hu38-4 (antibody, human IgG1, kappa, L234A L235A, V domains shown)
VH: EFQLVQSGAEVKKPGASVKVSCKASGYTFTDHNMNWVRQAPGQRLEWMGVINPNYGTTTYNQKFKGRVTITVDTSASTAYMELSSLRSEDTAVYYCARRGFAYWGQGTLVTVSS
VL: DIVMTQTPLSLPVTPGEPASISCRSSKSLLYKDGKTYLNWFLQKPGQSPQLLIYLMQTRASGVPDRFSGSGSGTDLTLKISRVEAEDVGVYYCQQIAEYPFTFGSGTKLEIKR
notes: humanized mAb38, IgG1/kappa
B6: Hu38-5 (antibody, human IgG1, kappa, L234A L235A, V domains shown)
VH: B5 VH with F2V, T28S
VL: B5 VL with F41Y, Q57S, L76F
notes: humanized mAb38, IgG1/kappa
B7: Hu38-9 (antibody, human IgG1, kappa, L234A L235A, V domains shown)
VH: B5 VH with T28S, T74Q
VL: B5 VL with F41Y, Q57S, L76F
notes: humanized mAb38, IgG1/kappa
B8: Hu38-13 (antibody, human IgG1, kappa, L234A L235A, V domains shown)
VH: B5 VH with T28S, R44S, T74Q
VL: B5 VL with F41Y, Q57S, L76F
notes: humanized mAb38, IgG1/kappa

Molecular target: T1, human IL-23 (Sino Biological, …)
Assay: cell-based or functional assay

| Binder | Activity in inhibiting proliferation of BaF3-IL-23R cells (IC50, nM) |
| --- | --- |
| B1 | 0.175 nM |
| B2 | 0.222 nM |
| B3 | 0.194 nM |
| B4 | 0.178 nM |

Molecular target: T1, human IL-23 (Sino Biological, …)
Assay: competition ELISA, blocks IL-23/IL-23R; IL-23R coated, biotin-IL-23 + sample gradient
Experimental: (§1) The specific procedures are as follows:
The receptor protein was diluted to 2 μg/mL with a PBS (BasalMedia, B320) buffer at pH 7.4 and added to a 96-well microplate (Corning, 3590) at 100 μL/well. The plate was incubated at 4° C. overnight. After the liquid was discarded, 1 % Casein blocking solution (Thermo, 37528) was added at 200 μL/well for blocking, and the plate was incubated at 37° C. for 2 h. After the blocking was complete, the blocking solution was discarded, and the plate was washed 3 times with a PBST buffer (pH 7.4 PBS containing 0.1 % tween-20) for later use. After the biotin-labeled ligand protein at a fixed concentration was mixed with an antibody or fusion protein diluted in a gradient, the mixture was pre-incubated at 37° C. for 30 min and then added to the blocked microplate. The plate was incubated at 37° C. for 1.5 h. After the incubation was complete, the plate was washed 3 times with PBST. Streptavidin-HRP (Invitrogen, 434323, diluted at 1:4000) was added at 100 μL/well, and the plate was incubated at 37° C. for 1 h. The supernatant was removed. After the plate was washed 3 times with PBST, TMB chromogenic substrate (KPL, 5120-0077) was added at 100 μL/well, and the plate was incubated at room temperature for 10⁻¹⁵ min. 1 M H₂SO₄ was added at 50 μL/well to terminate the reaction. The absorbance values at 450 nm were taken using a microplate reader. Curves for the inhibition of binding of the ligands to the receptors were fitted using software, and the IC₅₀ values were calculated.

| Binder | IC50 |
| --- | --- |
| B1 | 0.386 nM |
| B5 | 0.427 nM |
| B6 | 0.228 nM |
| B7 | 0.496 nM |
| B8 | 0.455 nM |
| B2 | 0.361 nM |
| B3 | 0.478 nM |
| B4 | 0.488 nM |

Molecular target: cynomolgus monkey IL-23 (Acro Biosystems, ILB-CM52W8) (cynomolgus monkey, UniProt H6WS56 20-189)
Assay: SPR (Biacore), Protein A capture of sample, 1:1 model
Experimental: (§2) A certain amount of test sample was subjected to affinity capture by a biosensor chip Protein A (GE, 29127556), and then antigens at a series of concentration gradients were allowed to flow on the surface of the chip. The reaction signals were detected in real time by using Biacore (GE, 8 K) to obtain association and dissociation curves. After the dissociation was completed for each cycle, the biochip was washed and regenerated with a 10 mM glycine-hydrochloric acid solution at pH 1.5 (GE, BR-1003-54). Fitting was performed based on the experimental data using BlAevaluation version 4.1 software with a 1:1 model, and affinity values were obtained.

| Binder | Kd | koff | kon |
| --- | --- | --- | --- |
| B5 | 0.0768 nM | 3.09e-05 s⁻¹ | 402000 M⁻¹ s⁻¹ |
| B3 | 0.0708 nM | 0.000192 s⁻¹ | 2.71e+06 M⁻¹ s⁻¹ |
| B4 | 0.0857 nM | – | – |

Molecular target: T1, human IL-23 (Sino Biological, …)
Assay: as above
Experimental: as §2

| Binder | Kd | koff | kon |
| --- | --- | --- | --- |
| B1 | 0.0207 nM | 8.4e-05 s⁻¹ | 4.05e+06 M⁻¹ s⁻¹ |
| B5 | 0.196 nM | 6.92e-05 s⁻¹ | 353000 M⁻¹ s⁻¹ |
| B6 | 0.277 nM | 5.82e-05 s⁻¹ | 210000 M⁻¹ s⁻¹ |
| B7 | 0.283 nM | 6.68e-05 s⁻¹ | 236000 M⁻¹ s⁻¹ |
| B8 | 0.27 nM | 5.56e-05 s⁻¹ | 206000 M⁻¹ s⁻¹ |
| B2 | 0.0901 nM | 5.65e-05 s⁻¹ | 627000 M⁻¹ s⁻¹ |
| B3 | 0.0151 nM | 4.08e-05 s⁻¹ | 2.71e+06 M⁻¹ s⁻¹ |
| B4 | 0.0149 nM | – | – |

Molecular target: T1, human IL-23 (Sino Biological, …)
Assay: ELISA, sample coated, IL-23 titrated, anti-His-HRP
Experimental: as §1
The test sample was diluted to 2 μg/mL with a PBS (BasalMedia, B320) buffer at pH 7.4 and added to a 96-well microplate (Coming, 3590) at 100 μL/well. The plate was incubated at 4° C. overnight. After the liquid was discarded, 5 % skim milk (BD, 232100) diluted with PBS was added at 300 μL/well for blocking, and the mixture was incubated at 37° C. for 2 h. After the blocking was completed, the blocking solution was discarded, and the plate was washed 3 times with a PBST buffer (pH 7.4, PBS containing 0.1 % tween-20). […] After the incubation, the plate was washed 3 times with PBST. […] After the plate was washed 3 times with PBST, a TMB chromogenic substrate (KPL, 5120-0077) was added at 100 μL/well, and the mixture was incubated at room temperature for 10⁻¹⁵ min, and then 1 M H₂SO₄ was added at 50 μL/well to terminate the reaction. The absorbance values at 450 nm were taken using a microplate reader. The binding curves of antibodies to antigens were fitted using software, and the EC₅₀ values were calculated.

| Binder | EC50 |
| --- | --- |
| B1 | 1.16 nM |
| B5 | 1.88 nM |
| B2 | 1.83 nM |
| B3 | 1.11 nM |
| B4 | 1.22 nM |

Molecular target: T2, mouse IL-23 (R&D Systems, 1887-ML/CF)
Assay: SPR (Biacore), Protein A capture of sample

| Binder | binding result |
| --- | --- |
| B5 | no binding |
| B3 | no binding |
| B4 | no binding |

Molecular target: T1, human IL-23 (Sino Biological, …)
Assay: cell-based or functional assay
Remark: another data set of the same source

| Binder | Activity in inhibiting proliferation of BaF3-IL-23R cells (IC50, nM) |
| --- | --- |
| B5 | 0.122 nM |
| B6 | 0.148 nM |
| B7 | 0.198 nM |
| B8 | 0.187 nM |

Molecular target: T3, IL-23 (R&D Systems, 1290-IL-010)
Assay: cell-based or functional assay

| Binder | IC50 for inhibiting IL-17 secretion |
| --- | --- |
| B3 | 0.0177 nM |
| B4 | 0.0289 nM |
